Protein production data for 18 sequences are collected here from a protein production outcome set (Wang et al. 2014).

This data set in a line: label from the status in PepcDB records.
Consider “MSDQDVNPEHISDAQPAGTGLVLPGQTLPTTLYVIPIHNRPFFPAQVLPVIVNEEPWAETLELVAKTDHHSLALFFMDNPPEDPRHFDVNSLPEHGTLVRVHHASREGGKLQFVAQGLSRVRIRGWIKRHRPPFMVEVDYPKTPIDPSDEVKAYGMALINAIKELLPLNPLYSEELKNYLNRFSPNDPSPLTDFAAALTTAPGGELQEVLDTVPILKRMEKVLPLLRKEVEVARLQKELSAEVNRKIGEHQREFFLKEQLKIIQQELGITKDDKSADADEFRARLEGKVLPEQARKRIDEELNKLSILESGSPEYAVTRNYLDWATALPWGVYGKDKLDLKHARKVLDKHHAGLDDIKDRILEFLAVGSFKGEIAGSIVLLVGPPGVGKTSIGKSIAESLGRPFYRFSVGGMRDEAEIKGHRRTYIGALPGKLVQALKEVEVMNPVIMLDEIDKLGASYQGDPASALLETLDPEQNVEFLDHYLDLRLDLSKVLFVCTANTLDSIPGPLLDRMEVIRLSGYISEEKLAIAKRHLWPKQLEKAGVPKGRLSISDAALRAVIEGYAREAGVRQLEKQLGKLVRKSVVKLLEDPESKVKIGPRDLEDYLGMPVFRSEQVLSGIGVITGLAWTSMGGATLPIEATRIHTLNRGFKLTGQLGDVMKESAEIAYSYIGSHLKKYGGDPTFFDQAFVHLHVPEGATPKDGPSAGVTMASALLSLARNQVPKKGVAMTGELTLTGQVLPIGGVREKVIAARRQKIFELILPEANRGHFEELPDYLREGLTVHFAKRYGDVAKVLF”, for which the protein production entry was “failed”.

Take “MSDRLGIFFSGLCFVHCLATPILLIFLGTNSLASVLETPLFHRLLLLPVLTMAIFQGYYAWKNPQAKLSRVLLPLGCLAVVIAQFFHGPIEILLTIIGSLTLISGHFFHLKHEHCADQN”: the protein production result is “failed”.

Take “MSDSAIGVGYAADNPGWLIGMSETQERLQRLRAQAASLVFYAGILESATGRAFLELLDALSHQQPLAAVTAYSTWLGHLLASRQSWPQWLMHHIRSDDNPFSRQAQFAIASSLPEVWQQSACQDLQTLQQLASAPPRLLAPMVQALADLPTPPPHWLEETRDREAQWAETEDWAMLLPDLIQHYQQRGVGFFNRYWALRWQQGQLHGIEHPDPIPLSDLAGYELQKETLKRNTEFLLAGLPAQNVLLYGSCGAGKSSMVKALINAYGDRGLRLIEVGKADLRELPQILDQLRESALSFIVFVDDLSFEEDDETFKALKVVLEGGLTARPPNVVVYATSNRRHLVREYFDERPNPTEANEVHAWDSVQEKLSFSDRFGLTLTFEPADQDTYLAIVRHLASEVGLTMPLETLEFRARQWATRHNGRSGRTARQFMDWLIAEQSLPNPL”: the protein production result is reported as “failed”.

“MSDSLVVCEVDPELKETLRKFRFRKETNNAAIIMKVDKDRQMVVLEDELQNISPEELKLELPERQPRFVVYSYKYVHDDGRVSYPLCFIFSSPVGCKPEQQMMYAGSKNRLVQTAELTKVFEIRTTDDLTETWLKEKLAFFR”: the protein production result was “not failed”.

On to “MSDTLRPYKNLFPGIGQRVMIDTSSVVIGDVRLADDVGIWPLVVIRGDVNYVAIGARTNIQDGSVLHVTHKSSSNPHGNPLIIGEDVTVGHKVMLHGCTIGNRVLVGMGSIVLDGAIIEDDVMIGAGSLVPQHKRLESGYLYLGSPVKQIRPLSDAERSGLQYSANNYVKWKDDYLSQDNHIQP”, for which the protein production entry is listed as “not failed”.

In the case of “MSDTNSGGGRQAASGPAPRGRLPFRRRVALVAVARPLIVTVGLVTAYYLLPLDERLSAGTLVSLVCGLLAVLLVFCWEVRAITRSPHPRLRAIEGLAATLVLFLVLFAGSYYLLGRSAPGSFSEPLNRTDALYFTLTTFATVGFGDITARSETGRILTMAQMTGGLLLVGVAARVLASAVQAGLHRQGRGPAASPRSGAAEEPEAGP”, the protein production result was “failed”.

For the sequence “MSDTRRCVVIPAVKKNAVIPDQLVKRLAGVTLIQRAIDTAKALAPGDDIVVVTDSQEIALICERNGVRHVCNPGLHLATLDIVRELRGVLEDLARSYGHIVIYRASCPLLTADDIEDAYATFLREGADCLVTVKSVRHRVWEKRNGGLDALLSQDETEPSIYVESKALVMLDASALTRGEVRKVVPYFLNDRAIEINSYQDWWICEKLLCRKHIVFVVAGYPAIGMGHIFRALMLAHEVADHRITFLCTRESELAASNIAARDYRTRVQQGDDLAADVLSLRPDLVINDILNTDADYVGRLREAGVRVVNFEDEGPGAHLADLVVNALYEEKVDDPRFLHGHRFFCLRDEFVNGVRNDYRDPVRCVLVTFGGTDHSDFSRGTLDAIEPLCRERGITIRLVAGPGYAHKDAMQEHVERLGSPLVEFTYATNVMSRMMEGADLAICSAGRTVYELAHMRVPAIVMAHHEREGRHTFARGRNGFAYLGVMEHFDGAKLTRVFTQLLDAGNRRRLFDRQARFDFIRNKADVVRRITALLDDTPAPENA”, the protein production entry is “failed”.

Turning to “MSDVAATAQRQQVRQQGLILGLVTLPFRCFGVLCGSLFLCIVIECIGMALFWPDQGWRHAQAMLGHELDQLSDYFVRSALVQEPGRTAHQWIQHAYEWAFVRSGLLEWMQDASRQARAGASGRPWSLPQVLATVSMHAEGYLIAAAYTVLLFLVRLLMLCLTLPLFALAAFVGLVDGLVRRDIRRFGAGRESGFLYHRARASLVPLAVLPWVTYLALPVRVHPVVILLPSAVLLGVAVDIAAGSFKKYL”, the protein production entry is given as “failed”.

As for “MSDVTGDLAAVSEAKGGSDAARISEVKAWLTSQFEAVGKEVPNFEYTHRSITHLYNLATASQAKSQAATIVANDFRLKASEYRAQAARIREILESAGMSQESLPSNVVSSAQVLANVANLLNIRDTELSRILAQLEDDVVPCESQMENWKTNLEVMAVKEEQYIQQYKKYEMLLNRVGYTPKISHRELVEMAEHRKELDKMTKPVLDTLRSYQDLPPDKALAALAIEDKKRQFTAAEKYLEEVLQSALETNDE”, the protein production result was “failed”.

Take “MSEATILVSGATGRTGGAAIDELLKSGKQVRAYVRSNDDRAAAFRKRGVEVAIGDFTGIDDIRAAMEGVTSAYFLHPIAPGIIGAAAYFAQAAKEAGVSAIVNMSQISARRESASHAAQDHWISERVFDWSGVATTHLRPTFFADWLVYPHFAKEIWAKKKIEFPFENGRHAPIATDDQGRVIAHILANPEGHGGKTYTLTGPIELNHTEIAAAMSEVLGAKIEYAPTSIDEFRNKMENVYKFPPFLTQHLVEVAQNYRDGIFSGANDAVEKITGTPALSVQQFIAQNRAVFA”: the protein production entry is listed as “failed”.

On to “MSEEIVLKAGGKIYQGWTKIGITRSLEAMSGAFDLEMTYKFLGNDAQYKAFIEPIKQGQACTVDIGGERVITGYVDDWVPSYDESTITISVSGRDKTADLVDCSIDYPSGQFNNQTLTQIADIVCKPFGIKVIVNTDVGEPFQRIQIEQGETPHELLARLAKQRGVLLTSDTFGNLVITRASKTKAGVSLILGDNVKAARGRFSWRQRFSKFTIKAAGAAHGQWDSAGLPTVGGIKADVTDSEIGRYRPLIIVNEEVTTAEGAAKRGQWERQRSIGKSNMAEYTVTGWRIPQTGKLWNINTLVPVIDEIMGLDEEMLIASILFSEDDAGRLAVISVVRPDAMDIPAQIVKDTKLGGSTW”, for which the protein production result is “not failed”.

For the sequence “MSEFLALFSAMWKESWRDKISTFFSIAFPVMFLLIFGFLFGGSGNSVKTAVVTVDYDLSDFGDVYTSLEELKGYYHEVAVVEKERIIFIRNTTDEYYQSLLDSWEISLKNKVTRLLNGLNPVIMVKKEVLKTARELTSFDYTLTGVIAVSLLSIGLFGTVDVFSRYRERGFLKRLKATPVGNFSFVFGLISARMFYGILSTALIMLLGTLIFKASYELNVFLFLISVVSSVLSFIALGALISILFKKSDVATDAAVILFTIMMFLTGVYFPVSFLPDYLRVVSYFLPVKYGVELIRYSLGFEIFPFSRYLITAVIMFLAGLMFVFYTASLVLRKED”, the protein production result was “failed”.

Consider “MSEGSNVLVSIILVNYNGADILPDCLNSIDKFISKDNCEILLVDNASQDNSYELVAQDFPDVKIVRLPKNYGFGAGNNAGAKIAKGKFLLLLNTDTILTTNILPHLIDLMRENPDVGIIGTKLVFPDETFQISFAYTIGIKGEYKSRKLHEYAEDKSKLNSLEQEFNTIKEVDIVVGAALFIRADLFHSVGGFDEKFFIYFEDADLCRRVQNQGYKILYTPQVSLIHIRGHSMKKNANATVVEYRRSQLYYYKKHCPVWERIILRIYLFAKFLPEFLATRNPYSLEIIKLLFVIA”, for which the protein production result was “failed”.

As to “MSEIDANYRALAQQVADKVAGRVIALDRLPESLLTAYRSLCDELLADRDGRFTRAWDQLPDSASSLFERCVFHGFYLANAWIQLSIVARDISELQDTDEAIAEQEYSGLYVRVAEAALKESVKKLKKARTDRSMYNSMREVMGI”, the protein production result is “not failed”.

Turning to “MSEIIIQNLISPVVLFFLLGIIAATFKSDLQFPKGLTEALSMYLLIAIGIKGGIELSHYHLEAVIGPVIGTIFLGMLIPVIVLMITRLFMKVDLKNSIALAATYGSTSIVTYGAAVSFLEKSGTTYEGFMNAMVVLKESPAILVSLLLLSIIERQQAVPTTLSSKRVGIVSGHQGLIDKEVLKESFFGKSIILLLGSLIIGLVVGERAIPMVQPLFIDLYQSVLILFLLYMGLTVGERLPEVKKHGIKLILFGVLTPILLGALGVLVGTLAGLSVGGATLMGILAGSASYIAAPAALRTSVPEANPSIYLGLSLGVTFPFNLIFGIPLYFEFAKLLH”, the protein production entry is “failed”.

As to “MSELARLRQKVSDGLGLATPAADPADKTTRLANEEHASDVRAVALYVAISLSVGAFAAALIALAVPYAVTVVLACFFGAVLMGALFYALFGKSFPLPGTLPADYSDVRLRQTQNRSLIAEMQESMGDIVVIRNMNRRIVEANRVFREMTGCTSPEGLSCEEIGIAFRPGDRVHAYDVEIATPFGQRIFSWHDVVTRDLASSRLMISSIARDVTEERLALAEREDARLRAEKADAEKARLLATVSHEIRLPLSGMLGMNHLLSQTKLNQEQRNYLDGMKQSGQSLVQLVEDLLDYSTMEAGRFRLNPRAENLRRLIESIVEMLAHRAHEKGIEIASFVTPDVPDYLDFDPARLRQVLFNLIGNAVKFTQVGGVVIRARMVDGELQITVEDTGPGMSEAEQARIFGEFEQAGPLSQRSAGTGLGLAISARIVREFGGNLTVSSRRGEGSTFKLVFRPGRAPAEMPDSGRSHCLQHTNVLLIAPEGVAAAVTMEAIEAFGGKCILIHQPEDLDRLRNEPVSRTADLTDIIVDLRISALFRDALRDWPQQTIRRTLLVSPEERASTTHASFDAWLIRPLREKSLIDVLCGRLRGIERRDAINDNHPDVGFSSRVVERASGVEILVAEDDAVNARIIRAVLEKSGYIVRAVDNFQALQQSVASGASRLPNLIVSDLNMPGGEGLDVLPDLLGKLKDERNIPVIILSGDAGAGTAEILLKAGAGAVLAKPADPRRLVEEIRRLLEAKRVLSS”, the protein production entry is reported as “failed”.

With “MSELIAQLLVYIKGIWKYRWASVATAWTVAIAGWFFVYQMPDNYQASARIYVDTQSILRPLMAGMTVSPNPDQQITIMSRTLISRPNVERIIRMVDLDIKITDDSAREKLVTTLMKDIKLSTTGSDNIFMISYDNKDPRLAKDIVQSLLTIFVEGGLEGKKQDSASALRFIDQQIAAYEEKLVAAEAALTAFKQKNIGFLPGQGGDYYSQLVSAAEELEKARLTLLEAEQARDAVKKQITGDEPVLLFEVGEVSPQSIVNPEIDSRIQALNTNLDNLMLNFTDQHPDVVATKRLIAQLEERKVEEAKLAGTVNNRGRNYDPMMQQLNIALAESEAQVASMKARVAEYEARFERLKSMSNTVPAVEVEMQQLNRDYNVNKANYEKLLERRASAEISGELTSTSGLMSFRIVDPPTVPEAPSGPDRKKFFTLVLIGALAGGIGFAFIISQIRPTFHSQSTLRELTGLPILGTIPMVWTEQQKLKDKRKIYAFGISLLMLMACYVVLMIYVKPHGMTAA”, the protein production entry is on record as “failed”.

On to “MSELITYHAEDGIATLTLNNGKVNAISPDVITAFNAALDRATEERAVVIITGQPGILSGGYDLKVMTRGPQEAISLVTAGSTLARRLLSHPFPVVVACPGNAVAKGAFLLLSADYRIGVEGPYKVCLNEVQIGMTMHHAGIELARDRLRRSAFHRSVINAEVFDPQGAVDAGFLDKVVPAEQLQEAAMTAARELKKLN”, for which the protein production entry is given as “failed”.
